No end group written: not given here. *: point of attachment. Biotin = O=C1N[C@H]2[C@H](CS[C@H]2CCCCC(=O)*)N1; code X = not defined here
Legend:
cynomolgus CD3-epsilon = target: T1, cynomolgus CD3-epsilon (cynomolgus, UniProt Q95LI5 22-198); assay: flow cytometry on cynomolgus T cells
T1 construct: whole, on cells; also called CD3ε on cynomolgus T cells / PBMCs
Description: In these experiments, human or cynomolgus T cells were incubated with an anti-CD3ε antibody and binding was assessed by flow cytometry.
Briefly, donor T cells from either human or cynomolgus donors were resuspended in FACS buffer containing 0.1% sodium azide and aliquoted in 100 μL volumes. For incubation, 100 μL aliquots of donor T cells were mixed with 50 μL of antibodies diluted in FACS buffer containing 0.1% sodium azide. The cells were then washed twice with FACS buffer containing sodium azide. The bound antibody was detected by incubating cells for 60 minutes with a 1:200 dilution of SAV-RPE (Invitrogen Cat No. SA10044, Lot. 1542820A) or 1:100 dilution of goat-anti-Mouse Fcγ-RPE (Jackson Cat. No. 115-116-071, Lot. 108668, diluted in 0.2% goat serum). The cells were washed, fixed, and analyzed with an Accuri Flow Cytometer.
Treatment with OKT3, SP34-2, and diL2K antibodies were used as positive controls for T cell binding. […] Treatment with OKT3, SP34-2, and diL2K antibodies were used as controls for T cell binding with only SP34-2 binding to cynomolgus T cells, as expected.

B X EMGGITQTPYKVSIS = target: T2, B X EMGGITQTPYKVSIS (reading uncertain); assay: Luminex bead assay [Cont.]
T2 construct: row 7 of the chart; also called biotinylated 15-mer, residues 6-20
T2 peptide: {Biotin-code X}-EMGGITQTPYKVSIS
Description: (§1) A set of experiments was performed to map the epitope recognized by the anti-CD3ε antibodies. In these experiments, the anti-CD3ε antibodies were assessed for binding to a collection of overlapping 15-mer peptides spanning amino acids 1-27 of human CD3ε protein using a Luminex bead assay. Control CD3 proteins, control peptides, or the test peptides were immobilized on Luminex beads and incubated with a panel of anti-CD3 antibodies. Binding of the anti-CD3 antibodies to the peptide/protein immobilized on the Luminex bead was detected by R-Phycoerythrin conjugated secondary antibody.
(§2) Recombinant CD3 proteins (human CD3d/e heterodimer and cynomolgus CD3-epsilon (Sinobiological)) and control peptides (#p1, #p2, and #p3) were conjugated to Luminex beads using standard EDC/Sulfo-NHS chemistry. The 15-mer test peptides were synthesized as biotinylated peptides at JPT Peptide Technologies Gmbh and were immobilized on streptavidin-conjugated Luminex beads that were made using standard EDC/Sulfo-NHS chemistry and streptavidin (Invitrogen Cat. No. 434301 lot 1626028A). The Luminex beads with immobilized peptides or reagents were incubated with 50 ul of a panel of anti-CD3 antibodies (1 ug/ml) for one hour at room temperature, washed two times, incubated with mixture of anti-human and anti-mouse IgG-RPE (Jackson Immunoresearch 109-116-097 and Southern Biotech 1030-09, respectively) for 30 mins at RT, washed three times, and analyzed in the Luminex instrument to assess the level of bound anti-CD3 antibodies.

B X GGITQTPYKVSISGT = target: T3, B X GGITQTPYKVSISGT (reading uncertain); assay: Luminex bead assay [Cont.]
T3 construct: row 9 of the chart; also called biotinylated 15-mer, residues 8-22
T3 peptide: {Biotin-code X}-GGITQTPYKVSISGT
Description: as §1, §2

B X QDANEEMGGITQTP = target: T4, B X QDANEEMGGITQTP (reading uncertain); assay: Luminex bead assay [Cont.]
T4 construct: row 17 of the chart; 14 residues; also called alanine-scan peptide G3A
T4 peptide: {Biotin-code X}-QDANEEMGGITQTP
Description: as §1, §2

B X ITQTPYKVSISGTTV = target: T5, B X ITQTPYKVSISGTTV (reading uncertain); assay: Luminex bead assay [Cont.]
T5 construct: row 11 of the chart; also called biotinylated 15-mer, residues 10-24
T5 peptide: {Biotin-code X}-ITQTPYKVSISGTTV
Description: as §1, §2

B X EEMGGITQTPYKVSI = target: T6, B X EEMGGITQTPYKVSI (reading uncertain); assay: Luminex bead assay [Cont.]
T6 construct: row 6 of the chart; also called biotinylated 15-mer, residues 5-19
T6 peptide: {Biotin-code X}-EEMGGITQTPYKVSI
Description: as §1, §2

[1] = target: T7, (H2N-KEFSELEQSGYYVCYPRGSNPEDA-OH) vCD3e #p3-BSA (conjugated to BSA); assay: Luminex bead assay [Cont.]
T7 construct: also called control peptide #p3
T7 peptide: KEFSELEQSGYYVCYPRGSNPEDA
Description: as §1, §2

B X QAGNEEMGGITQTP = target: T8, B X QAGNEEMGGITQTP (reading uncertain); assay: Luminex bead assay [Cont.]
T8 construct: row 16 of the chart; also called alanine-scan peptide D2A
T8 peptide: {Biotin-code X}-QAGNEEMGGITQTP
Description: as §1, §2

B X GITQTPYKVSISGTT = target: T9, B X GITQTPYKVSISGTT (reading uncertain); assay: Luminex bead assay [Cont.]
T9 construct: row 10 of the chart; also called biotinylated 15-mer, residues 9-23
T9 peptide: {Biotin-code X}-GITQTPYKVSISGTT
Description: as §1, §2

T1 sequence (Q95LI5 22-198): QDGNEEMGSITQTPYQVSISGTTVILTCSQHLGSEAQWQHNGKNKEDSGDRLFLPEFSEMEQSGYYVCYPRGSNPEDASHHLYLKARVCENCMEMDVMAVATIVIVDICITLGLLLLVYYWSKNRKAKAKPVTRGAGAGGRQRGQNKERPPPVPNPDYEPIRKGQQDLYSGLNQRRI

B1: 6d59 (antibody, V domains shown)
VH: QVHLVESGGGVVQPGRSLRLSCAASGFKFRSYGMHWVRQAPGKGLEWVAIIWYDGSKRYYADSVKGRFTISRDNSKNTLYLQMSSLRAEDTAVYYCARDLITGTTDYWGQGTLVTVSS
VL: DVVMTQSPLSLPVTLGQPASISCRSSRSLVYSDGNTHLIWFQQRPGQSPRRLIYRVSNRVSGVPDRFSGSGSGTDFTLKISRVEAEDVGVYYCLQGAHWPYTFGQGTKLEIKR
notes: also called 6d59.1; VCD3-6d59.1
EC50 (read off the curve) (cynomolgus CD3-epsilon): ~0.07 nM | binding result (B X EMGGITQTPYKVSIS): no binding (tested: 1 ug/ml) | binding result (B X GGITQTPYKVSISGT): no binding (tested: 1 ug/ml) | binding result (B X QDANEEMGGITQTP): no binding (tested: 1 ug/ml) | binding result (B X ITQTPYKVSISGTTV): no binding (tested: 1 ug/ml) | binding result (B X EEMGGITQTPYKVSI): no binding (tested: 1 ug/ml) | binding result [1]: no binding (tested: 1 ug/ml) | binding result (B X QAGNEEMGGITQTP): no binding (tested: 1 ug/ml) | binding result (B X GITQTPYKVSISGTT): no binding (tested: 1 ug/ml)
